Our source for the Kd values is publication PMC5419741.

Series [1] deals with LARP1 DM15 E886 mutant (Homo sapiens), Q6PKG0-3. As to the kind of experiment: EMSA. To be noted: 5' m7Gppp cap; Competition assays: 20 mM Tris pH 8, 150 mM NaCl, 10% glycerol, 1 mM DTT, 0.5 ug BSA, 0.5 ug tRNA, 30 min on ice, native gel; EMSA as in Lahr et al. 2015 with …. In general terms: In EMSA bound probe runs differently from free probe, usually more slowly.
The test system of series [2] is LARP1 DM15 Y922 mutant (Homo sapiens), Q6PKG0-3. As to the kind of experiment: EMSA. To be noted: 5' m7Gppp cap; Competition assays: 20 mM Tris pH 8, 150 mM NaCl, 10% glycerol, 1 mM DTT, 0.5 ug BSA, 0.5 ug tRNA, 30 min on ice, native gel; EMSA as in Lahr et al. 2015 with ….

Regarding “CCUCUUUUCCGUGGCGCCUCGGAGGCGUUCAGCUGCUUCAAG [m7Gppp-RPS6 42mer (capped TOP)]”, the Kd is 8 µM in series [1] and 2.6 µM in series [2].

What is called Kd is the constant that tells how readily two partners part at equilibrium. High values mean lower affinity, low ones higher affinity.
